The results in this text go back to PMC3334931, “Characterization of the Single Stranded DNA Binding Protein SsbB Encoded in the Gonoccocal Genetic Island” (PLoS ONE, 2012).

For orientation: Kd means a measure of binding affinity in units of concentration. In general, stoichiometry N refers to a count of units in the complex or per binding partner.

Data set [1] deals with T1, SsbB (native) (Neisseria gonorrhoeae MS11, UniProt Q5EP75 1-143).
T1 sequence: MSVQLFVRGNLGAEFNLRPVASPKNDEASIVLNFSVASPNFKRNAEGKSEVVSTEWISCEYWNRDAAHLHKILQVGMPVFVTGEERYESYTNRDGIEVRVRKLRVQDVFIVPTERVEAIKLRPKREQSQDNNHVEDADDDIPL
Put plainly: EMSA; SBA buffer; (SsbB)4 concentration; one and two tetramer complexes; EMSA: SBA buffer (10 mM NaOH, 2 mM EDTA, boric acid to pH 7.5), optional 10 mM MgCl2 and/or NaCl up to 500 mM, 4 C 15 min; AFM: 20 mM Tris pH 7.5, 150 mM NaCl. The settings on record: protein: recombinant; tags: none; chain copies: 4; label: 5' 32P.

Data set [2] deals with T1, SsbB (native). Put plainly: EMSA; stoichiometric at 8 nM DNA; 1 tetramer per oligo; Cy3 raises affinity at least 10-fold; EMSA: SBA buffer (10 mM NaOH, 2 mM EDTA, boric acid to pH 7.5), optional 10 mM MgCl2 and/or NaCl up to 500 mM, 4 C 15 min; AFM: 20 mM Tris pH 7.5, 150 mM NaCl. To be noted: protein: recombinant; tags: none; chain copies: 4; label: 5' Cy3. On the technique in general: A gel shift assay detects complexes by their altered migration in electrophoresis.

Data set [3] concerns the target T1, SsbB (native). Put plainly: tryptophan fluorescence titration; biphasic; 1 oligo per tetramer high affinity, second much weaker; EMSA: SBA buffer (10 mM NaOH, 2 mM EDTA, boric acid to pH 7.5), optional 10 mM MgCl2 and/or NaCl up to 500 mM, 4 C 15 min; AFM: 20 mM Tris pH 7.5, 150 mM NaCl. The settings on record: protein: recombinant; tags: none; chain copies: 4.
Data set [4] deals with the molecule itself. Briefly: SEC; gel filtration chromatography of the purified proteins; single peaks; data not shown. Background: In gel filtration, larger molecules generally elute earlier.
Data set [5] addresses T1, SsbB (native). Briefly: EMSA (Coomassie); 1 uM tetramer, 5 uM oligo; minimal frame for one tetramer; EMSA: SBA buffer (10 mM NaOH, 2 mM EDTA, boric acid to pH 7.5), optional 10 mM MgCl2 and/or NaCl up to 500 mM, 4 C 15 min; AFM: 20 mM Tris pH 7.5, 150 mM NaCl. To be noted: protein: recombinant; tags: none; chain copies: 4.
Data set [6] addresses T1, SsbB (native). Put plainly: EMSA (Coomassie); 1 uM tetramer, 0.25 uM oligo; minimal frame for two tetramers; EMSA: SBA buffer (10 mM NaOH, 2 mM EDTA, boric acid to pH 7.5), optional 10 mM MgCl2 and/or NaCl up to 500 mM, 4 C 15 min; AFM: 20 mM Tris pH 7.5, 150 mM NaCl. The settings on record: protein: recombinant; tags: none; chain copies: 4.

B1: 32P-dT75 (ssDNA)
DNA: TTTTTTTTTTTTTTTTTTTTTTTTTTTTTTTTTTTTTTTTTTTTTTTTTTTTTTTTTTTTTTTTTTTTTTTTTTT
Consider B1, for which the Kd with SsbB (native) [1] is around 0.1 µM.
Turning to TTTTTTTTTTTTTTTTTTTTTTTTTTTTTTTTTTT (ssDNA) [Cy3-dT35], in the data set with SsbB (native) [2], the binding result was “binds”.
As to TTTTTTTTTTTTTTTTTTTTTTTTTTTTTTTTTTT (ssDNA) [dT35], the binding result with SsbB (native) [3] was “binds”.

B2: native SsbB (single stranded DNA binding protein SsbB encoded in the Gonococcal Genetic Island of Neisseria gonorrhoeae) (natural protein, UniProt Q5EP75 1-143, looked up)
chain: MSVQLFVRGNLGAEFNLRPVASPKNDEASIVLNFSVASPNFKRNAEGKSEVVSTEWISCEYWNRDAAHLHKILQVGMPVFVTGEERYESYTNRDGIEVRVRKLRVQDVFIVPTERVEAIKLRPKREQSQDNNHVEDADDDIPL
notes: expressed as the native (untagged) protein; also called WT; GGI SSB; source: E. coli C43 (DE3), purified (Hi-Trap Q, DNA-cellulose, Superdex SD200)
For B2, in data set [4], the “stoichiometry N” value amounted to 4.

B3: OneSTrEP-tagged SsbB (natural protein, Neisseria gonorrhoeae, UniProt Q5EP75 1-143, looked up)
chain: MSVQLFVRGNLGAEFNLRPVASPKNDEASIVLNFSVASPNFKRNAEGKSEVVSTEWISCEYWNRDAAHLHKILQVGMPVFVTGEERYESYTNRDGIEVRVRKLRVQDVFIVPTERVEAIKLRPKREQSQDNNHVEDADDDIPL
notes: source: E. coli C43 (DE3), purified (Strep-tactin Sepharose, Hi-Trap Q, Superdex SD200); not shown: OneSTrEP tag, N-terminal, kept
Regarding B3, the “stoichiometry N” value in data set [4] was determined as 4.

B4: His-tagged SsbB (natural protein, Neisseria gonorrhoeae, UniProt Q5EP75 1-143, looked up)
chain: MSVQLFVRGNLGAEFNLRPVASPKNDEASIVLNFSVASPNFKRNAEGKSEVVSTEWISCEYWNRDAAHLHKILQVGMPVFVTGEERYESYTNRDGIEVRVRKLRVQDVFIVPTERVEAIKLRPKREQSQDNNHVEDADDDIPL
notes: also called N- His- tagged SsbB; source: E. coli C43 (DE3), purified (Hi-Trap Chelating Ni, Hi-Trap Q, Superdex SD200); not shown: His tag, N-terminal, kept
On to B4, for which the “stoichiometry N” value in data set [4] turned out to be 4.
TTTTTTTTTTTTTTT (ssDNA) [dT15]: the binding result with SsbB (native) [5] is on record as “binds”.

B5: dT70 (ssDNA)
DNA: TTTTTTTTTTTTTTTTTTTTTTTTTTTTTTTTTTTTTTTTTTTTTTTTTTTTTTTTTTTTTTTTTTTTTT
In the case of B5, in the data set with SsbB (native) [6], the binding result is “binds”.
With TTTTTTTTTTTTTTTTTTTTTTTTT (ssDNA) [dT25], the binding result in the data set with SsbB (native) [3] is “binds”.
As for TTTTTTTTTTTTTTTTTTTTTTTTTTTTTTTTTTTTTTTTTTTTT (ssDNA) [dT45], the binding result with SsbB (native) [3] is “binds”.
